Assay results as given in patent publication US20050281914.
Where two headings read alike, the source gives them in different places.

T1: β-casein (f193-209)
T1 chain: YQEPVLGPVRGPFPIIV

T2: αS1-casein (f1-9)
T2 chain: RPKHPIKHQ

T3: αS1-casein (f1-9)
T3 sequence: RPKHPIKHQ

T4: β-casein (f193-209)
T4 sequence: YQEPVLGPVRGPFPIIV


Experiments:
β-casein (f193-209) [1] = target: T1, β-casein (f193-209)
αS1-casein (f1-9) [2] = target: T2, αS1-casein (f1-9)
αS1-casein (f1-9) [3] = system: T3, αS1-casein (f1-9); remark: listed apart in the source
β-casein (f193-209) [4] = system: T4, β-casein (f193-209); remark: listed apart in the source

Protein | Specific activity (E. coli CFE) (nmoles substrate hydrolyzed/h/mg protein) (β-casein (f193-209) [1]) | Specific activity (E. coli CFE, control subtracted) (nmoles substrate hydrolyzed/h/mg protein) (β-casein (f193-209) [1]) | Specific activity (E. coli CFE) (nmoles substrate hydrolyzed/h/mg protein) (αS1-casein (f1-9) [2]) | Specific activity (E. coli CFE, control subtracted) (nmoles substrate hydrolyzed/h/mg protein) (αS1-casein (f1-9) [2]) | Specific activity (Lc. lactis CFE), Cheddar cheese serum (αS1-casein (f1-9) [3]) | Specific activity (Lc. lactis CFE), defined peptide mix (αS1-casein (f1-9) [3]) | Specific activity (Lc. lactis CFE), individual peptide reaction (αS1-casein (f1-9) [3]) | relative activity in the defined peptide mix (αS1-casein (f1-9) [3]) | other results
Lactobacillus helveticus CNRZ32 endopeptidase PepE2 (protein) MKHELTMAEIAKFQQEYKKEPQNRVAELAVVNNGVQKASFNTEGIRKLNRTFSIEIPTDNVTDQKQSGRCWLFAALNTLRHGFAKKYNTKNFTFSQNYLFFWDRVERANIFFDNILNTADKPLGDRTVHTYMQGPDADGGQWAMAVSLIRKYGLVPTYAQEESFTANNTAAFNRALNMKLREDGLILRKLAKENKTDEIETKRQEFLSEVYRMAVIAFGEPVQKFDLEFKDDDGKYHFDGDLTPLDFFHNYFTDDLDDYIVLFNAPDHEFDKLYALPFEDNVEGGTPVQFLNTEIDNLKEAAIKQLEAGETIWFGCDVGKDSDRQKGILSKGLYQTDTIFNIETKLSKKERLQTGASGSTHAMTLVGVDVVDGKPRQWKIENSWGAKVGEKGYFVMDDDWFNEYLFKVVVKKQYVPDKLVKIWEGEATPVEAWDSMA |  |  |  |  |  |  |  |  | hydrolysis under simulated cheese ripening conditions (β-casein (f193-209) [1]): No hydrolysis of either peptide was detected after incubation with CFE from E. coli transformed with pepE2; hydrolysis under simulated cheese ripening conditions (αS1-casein (f1-9) [2]): No hydrolysis of either peptide was detected after incubation with CFE from E. coli transformed with pepE2
Lactobacillus helveticus CNRZ32 endopeptidase PepF (protein) MAIPTRSEVPEDLKWDLTRIFKTDQDWENAFDKAKDDVAKLSELKGSLAKSGKDLYEGLTKILAVKRDVENIYVYATMSSDVDTSNSHYLGYVSRVQSLSNQFEATTSFINPEILSIPAEKFEQFKKDEPRLADYAHYLEMITNKRPHTLPAEEEKIIADAGDAMSVSENTFNVLTNSDMEYGYVQDEDGNMEQLSNGLYSLLIQSQNRDVRKGAFNTLYASYGQFQNSLASTLSGVVKKHNYNARMHKYDSAREAALADNGVPVEVYDTLIKEVDSHLDLLHRYVALRKKILGLKDLQMWDMYVPLTGKPALSYNFEEAKKVAKEAMKPLGEDYLKHVDYIFNNRVIDPVESKGKVTGAYSGGAYDTDPYELLNWEDNIDSLYTLVHETGHSVHSWYTRHSQPYIYGNYPIFVAEIASTTNENILTEYFLDHITDPKTRAFILNHYLDSFKGTLFRQTQFAVFEQFIHEADAKGEPLTADILDDVYGQINQHYYGDSVEPGGDIALEWSRIPHFYYNFYVYQYATGFAAATALANKVVHGSQADRDAYLGYLKSGSSDYPTEIMKRAGVDMTKPDYLKDAFKTFEKRLNEFESLIGK | 14 | 14 |  |  |  |  |  |  | Specific activity (E. coli CFE) (αS1-casein (f1-9) [2]): -
Lactobacillus helveticus CNRZ32 endopeptidase PepO2 (protein) MNLAKIRGGAGDITKPDLNARIQDNLYLAVNSDWISKAKIPADRPLISSFSEIDLKIEKELMNDLADFASGKKALPDIPNFDKAIEVYKLAKDFAKRDADGFQPAQADLETLINLKDVDDVKQNLAKLLLRFSFPFLFEVEPDRKNTKTNSLSFDRNSLILPDTTSYQSPSAKQLLDVWQKQTENLLKMAGVEEAAAKKYATDAIALDAKIVKVAKSAEERADDVALYNPIKTNEFEEKTSSLNLGQLLEQLFEKKPNYVVVSEPKFLDHFNELFNQESFDELKGWLISIFINKAAAFLSEEFRQAAFPFKQATYGQKELPSQEKEAYYKANNLFDDVIGVYYGRTYFGEDAKADVEDMIHRMIDVYEQRITNNEWLSPATKEKAITKLRALVLKIGYPNKIDHVYDLFQVTPANEGGNLYSNQANIREVSLKHNFDKLYKPVDRSEWYMPGNLINACYDPQRNDITFPAAILEAPFYDINASRATNYGGIGVVIAHEISHAFDNNGAKYDEFGNMKNWWTKEDFAEFEKRTQAEIDLFDGIKYGPVTLNGKQIVSENIADQGGLTAGIEANKNEHGDMKELFENYARIWASKESPEIIKTIAAFDVHAPGPVRVNVQVQCQPEFYKAFNVQEGDGMWLDPAKRVVI | 290 | 290 | 1900 | 3700 |  |  |  |  | hydrolysis detected by RP-HPLC (pH 6.5, 37° C.) (β-casein (f193-209) [1]): significant hydrolysis of both β-CN(f193-209) and αs1-CN(f1-9) was detected with CFEs from E. coli DH5α (pSUW99); hydrolysis detected by RP-HPLC (pH 6.5, 37° C.) (αS1-casein (f1-9) [2]): significant hydrolysis of both β-CN(f193-209) and αs1-CN(f1-9) was detected with CFEs from E. coli DH5α (pSUW99)
Lactobacillus helveticus CNRZ32 PepO2 expressed as PpepO3:pepO2 translational fusion in Lactococcus lactis LM0230 (pSUW665) (enzyme, PpepO3 start and BamHI junction residues) MNLAKIRGGAGDITKPDLNARIQDNLYLAVNSDWISKAKIPADRPLISSFSEIDLKIEKELMNDLADFASGKKALPDIPNFDKAIEVYKLAKDFAKRDADGFQPAQADLETLINLKDVDDVKQNLAKLLLRFSFPFLFEVEPDRKNTKTNSLSFDRNSLILPDTTSYQSPSAKQLLDVWQKQTENLLKMAGVEEAAAKKYATDAIALDAKIVKVAKSAEERADDVALYNPIKTNEFEEKTSSLNLGQLLEQLFEKKPNYVVVSEPKFLDHFNELFNQESFDELKGWLISIFINKAAAFLSEEFRQAAFPFKQATYGQKELPSQEKEAYYKANNLFDDVIGVYYGRTYFGEDAKADVEDMIHRMIDVYEQRITNNEWLSPATKEKAITKLRALVLKIGYPNKIDHVYDLFQVTPANEGGNLYSNQANIREVSLKHNFDKLYKPVDRSEWYMPGNLINACYDPQRNDITFPAAILEAPFYDINASRATNYGGIGVVIAHEISHAFDNNGAKYDEFGNMKNWWTKEDFAEFEKRTQAEIDLFDGIKYGPVTLNGKQIVSENIADQGGLTAGIEANKNEHGDMKELFENYARIWASKESPEIIKTIAAFDVHAPGPVRVNVQVQCQPEFYKAFNVQEGDGMWLDPAKRVVI |  |  |  |  | 150 (40)^a, B | 84 (20)^b, C | 240 (10)^a, A | PepO2 had highest activity towards peptides αS1-CN (f1-9), and αS1-CN (f1-13) | Specific activity (Lc. lactis CFE), Cheddar cheese serum (β-casein (f193-209) [4]): 120 (32)^a, A; Specific activity (Lc. lactis CFE), defined peptide mix (β-casein (f193-209) [4]): 42 (10)^a, B; Specific activity (Lc. lactis CFE), single peptide reaction (β-casein (f193-209) [4]): 64 (1.5)^a, B; hydrolysis in spiked Cheddar cheese serum (RP-HPLC) (β-casein (f193-209) [4]): hydrolyzed completely within 12 hours
Lactobacillus helveticus CNRZ32 PepE expressed as PpepO3:pepE translational fusion in Lactococcus lactis LM0230 (pSUW666) (enzyme, UniProt P94870 1-438, looked up, PpepO3 fusion junction residues; expressed in Lactococcus) Aminopeptidase E: MAHELTVQELEKFSADFNKNPKNKVVARAAQRSGVLEASYNDRVQSELTRVFSTELDTDNVTNQKHSGRCWLFATLNVLRHEFGKKYKAKDFTFSQAYNFFWDKIERANMFYNRILDSADMPLDSRQVKTDLDFAGTDGGQFQMAAALVEKYGVVPSYAMPETFNTNDTTGFATALGDKLKKDALVLRKLKQEGKDDEIKKTREKFLSEVYQMTAIAVGEPPKKFDLEYRDDDKKYHLEKDLTPLEFLHKYLGGVDFDDYVVLTNAPDHEYDKLYGLPAEDNVSGSIRIKLLNVPMEYLTAASIAQLKDGEAVWFGNDVLRQMDRKTGYLDTNLYKLDDLFGVDLKMSKADRLKTGVGEVSHAMTLVGVDEDNGEVRQWKVENSWGDKSGAKGYYVMNNEWFNDYVYEVVVHKKYLTDKQKELAEGPITDLPAWDSLA |  |  |  |  | 31 (17)^c, C | 120 (7)^a, B | 190 (14)^a, A | PepE had highest activity towards αS1-CN (f1-9) and αS1-CN (f1-6) | 
Lactobacillus helveticus CNRZ32 endopeptidase PepO3 (protein) MTVRGGAGDITEADLSARPQDNLYLAVNSEWLKNAKIPSDRSRTSSFDGIDLNIEKELMQDFADFADGKKDLPDVPNFEKAVALYKIAKDFDRRNADGADPIQADLHEILGLRNFADFTLKAADFFKNGFPMPFDFSVEADMKNTKIHSLQFGGPGTFLPDTTTYKTPAAEKLLAVLKEQSINLLTMSGISKSEAEDYAEKALAYDAKIAKVVKSAEEWADYPATYNPISRDDFADKFKSFKMDYFLGELFAKKPERVINTEPRYLDYAEELLNEDVFAEIKAWMLVKFVNGVASSLSQEFREAAFPFSQALSGQPELPSGVKQAYHIANSDFSEVVGVYYGQTYFGAEAKADVTDMIHKMLDVYEKRIRENSWLSQATKDKAIVKLRALILKIGYPDKIEEIYDRLTVDPEASLYANEAQFGREQIKYNLEKLDQDVDRSVWLMPGNLVNACYDPQRNDLTFPAAILQKPFYDLKQSRSLNYGGIGVVIAHEISHAFDNNGAQFDEFGNMKNWWTEKDFAEFKKRTQAEIDLFDGIKYGPVTLNGKQIVSENIADQGGLTAAVEANKGEDGNMKELFENFARVWATKQLPESIKTQVSVDVHAPGPERANVQSQCQEEFYKAFDVTEHDGMWLDPEKRVVIW | 88 | 88 | 79 | 85 |  |  |  |  | Specific activity (Lc. lactis CFE), Cheddar cheese serum (β-casein (f193-209) [1]): 61 (23)^b, A; Specific activity (Lc. lactis CFE), defined peptide mix (β-casein (f193-209) [1]): 40 (6.0)^a, B; Specific activity (Lc. lactis CFE), single peptide reaction (β-casein (f193-209) [1]): 81 (7.0)^a, A; hydrolysis in spiked Cheddar cheese serum (RP-HPLC) (β-casein (f193-209) [1]): hydrolyzed completely within 12 hours; Specific activity (Lc. lactis CFE), Cheddar cheese serum (αS1-casein (f1-9) [2]): 63 (25)^b, A; Specific activity (Lc. lactis CFE), defined peptide mix (αS1-casein (f1-9) [2]): 38 (9.0)^c, A; Specific activity (Lc. lactis CFE), individual peptide reaction (αS1-casein (f1-9) [2]): 41 (19)^b, A
